T1: EsCas13d, nuclease-dead (Eubacterium siraeum, UniProt B0MS50, R295A;H300A;R849A;H854A)
T1 sequence: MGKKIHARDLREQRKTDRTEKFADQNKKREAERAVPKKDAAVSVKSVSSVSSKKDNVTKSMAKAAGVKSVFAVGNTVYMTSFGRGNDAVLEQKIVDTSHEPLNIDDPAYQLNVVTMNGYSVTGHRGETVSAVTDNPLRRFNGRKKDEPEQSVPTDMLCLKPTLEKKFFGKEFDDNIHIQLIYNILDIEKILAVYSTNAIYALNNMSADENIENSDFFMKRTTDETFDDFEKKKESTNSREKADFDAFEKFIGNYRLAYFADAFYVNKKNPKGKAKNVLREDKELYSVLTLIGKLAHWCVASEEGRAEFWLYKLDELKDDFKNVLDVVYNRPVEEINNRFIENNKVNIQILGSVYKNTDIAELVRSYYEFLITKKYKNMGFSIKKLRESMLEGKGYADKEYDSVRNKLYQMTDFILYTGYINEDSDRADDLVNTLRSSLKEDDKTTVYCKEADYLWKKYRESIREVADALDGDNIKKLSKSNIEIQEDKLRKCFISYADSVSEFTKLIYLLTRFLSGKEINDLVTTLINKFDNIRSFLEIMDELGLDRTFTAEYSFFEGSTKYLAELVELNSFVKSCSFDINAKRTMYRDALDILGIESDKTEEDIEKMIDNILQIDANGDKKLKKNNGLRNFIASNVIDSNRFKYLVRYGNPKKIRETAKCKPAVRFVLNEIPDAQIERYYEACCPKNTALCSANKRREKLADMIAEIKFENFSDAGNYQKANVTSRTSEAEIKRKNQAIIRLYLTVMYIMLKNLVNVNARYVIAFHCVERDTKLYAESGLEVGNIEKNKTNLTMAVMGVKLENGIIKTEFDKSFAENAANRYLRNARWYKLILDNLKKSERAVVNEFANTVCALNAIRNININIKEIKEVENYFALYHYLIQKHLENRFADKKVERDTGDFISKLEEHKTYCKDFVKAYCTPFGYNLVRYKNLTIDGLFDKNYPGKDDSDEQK

B1: target 1 C4A,A16C (mixed)
RNA 1: CACCCGUGCAAAAAUGCAGGGGUCUAAAACUGAGCGGAUAACCUCUCUAUGG
RNA 2: GGGAAUGGAUCCACAUCUACGAAUUCGUACCAUAGCGAGGUUAUCCGAUCACCGAGAUCGGAAGAGCACACGU
B2: target 1 insG 3' of 19,insG 3' of 4 (mixed)
RNA 1: CACCCGUGCAAAAAUGCAGGGGUCUAAAACUGAGCGGAUAACCUCUCUAUGG
RNA 2: GGGAAUGGAUCCACAUCUACGAAUUCGUACCAUGAGAGAGGUUAUCCGCGUCACCGAGAUCGGAAGAGCACACGU
B3: target 1 A1C,C7A (mixed)
RNA 1: CACCCGUGCAAAAAUGCAGGGGUCUAAAACUGAGCGGAUAACCUCUCUAUGG
RNA 2: GGGAAUGGAUCCACAUCUACGAAUUCGUACCAUAGAGAGGUUAUACGCUCCCCGAGAUCGGAAGAGCACACGU
B4: target 1 insG 3' of 19,insU 3' of 6 (mixed)
RNA 1: CACCCGUGCAAAAAUGCAGGGGUCUAAAACUGAGCGGAUAACCUCUCUAUGG
RNA 2: GGGAAUGGAUCCACAUCUACGAAUUCGUACCAUGAGAGAGGUUAUCCUGCUCACCGAGAUCGGAAGAGCACACGU
B5: target 1 insU 3' of 14,insC 3' of 1 (mixed)
RNA 1: CACCCGUGCAAAAAUGCAGGGGUCUAAAACUGAGCGGAUAACCUCUCUAUGG
RNA 2: GGGAAUGGAUCCACAUCUACGAAUUCGUACCAUAGAGAUGGUUAUCCGCUCACCCGAGAUCGGAAGAGCACACGU
B6: target 1 G5C,U8A (mixed)
RNA 1: CACCCGUGCAAAAAUGCAGGGGUCUAAAACUGAGCGGAUAACCUCUCUAUGG
RNA 2: GGGAAUGGAUCCACAUCUACGAAUUCGUACCAUAGAGAGGUUAACCCCUCACCGAGAUCGGAAGAGCACACGU
B7: target 1 A1G,A20U (mixed)
RNA 1: CACCCGUGCAAAAAUGCAGGGGUCUAAAACUGAGCGGAUAACCUCUCUAUGG
RNA 2: GGGAAUGGAUCCACAUCUACGAAUUCGUACCUUAGAGAGGUUAUCCGCUCGCCGAGAUCGGAAGAGCACACGU
B8: target 1 insU 3' of 14,insG 3' of 1 (mixed)
RNA 1: CACCCGUGCAAAAAUGCAGGGGUCUAAAACUGAGCGGAUAACCUCUCUAUGG
RNA 2: GGGAAUGGAUCCACAUCUACGAAUUCGUACCAUAGAGAUGGUUAUCCGCUCAGCCGAGAUCGGAAGAGCACACGU
B9: target 1 insA 3' of 13,insG 3' of 9 (mixed)
RNA 1: CACCCGUGCAAAAAUGCAGGGGUCUAAAACUGAGCGGAUAACCUCUCUAUGG
RNA 2: GGGAAUGGAUCCACAUCUACGAAUUCGUACCAUAGAGAGAGUUAGUCCGCUCACCGAGAUCGGAAGAGCACACGU
B10: target 1 insU 3' of 14,insA 3' of 2 (mixed)
RNA 1: CACCCGUGCAAAAAUGCAGGGGUCUAAAACUGAGCGGAUAACCUCUCUAUGG
RNA 2: GGGAAUGGAUCCACAUCUACGAAUUCGUACCAUAGAGAUGGUUAUCCGCUCAACCGAGAUCGGAAGAGCACACGU
B11: target 1 insA 3' of 15,insG 3' of 10 (mixed)
RNA 1: CACCCGUGCAAAAAUGCAGGGGUCUAAAACUGAGCGGAUAACCUCUCUAUGG
RNA 2: GGGAAUGGAUCCACAUCUACGAAUUCGUACCAUAGAGAAGGUUGAUCCGCUCACCGAGAUCGGAAGAGCACACGU
B12: target 1 insU 3' of 22,insU 3' of 21 (mixed)
RNA 1: CACCCGUGCAAAAAUGCAGGGGUCUAAAACUGAGCGGAUAACCUCUCUAUGG
RNA 2: GGGAAUGGAUCCACAUCUACGAAUUCGUACUCUAUAGAGAGGUUAUCCGCUCACCGAGAUCGGAAGAGCACACGU
B13: target 1 insA 3' of 8,insA 3' of 7 (mixed)
RNA 1: CACCCGUGCAAAAAUGCAGGGGUCUAAAACUGAGCGGAUAACCUCUCUAUGG
RNA 2: GGGAAUGGAUCCACAUCUACGAAUUCGUACCAUAGAGAGGUUAUACACGCUCACCGAGAUCGGAAGAGCACACGU
B14: target 1 C7A,G15U (mixed)
RNA 1: CACCCGUGCAAAAAUGCAGGGGUCUAAAACUGAGCGGAUAACCUCUCUAUGG
RNA 2: GGGAAUGGAUCCACAUCUACGAAUUCGUACCAUAGAUAGGUUAUACGCUCACCGAGAUCGGAAGAGCACACGU
B15: target 1 G5A,A14G (mixed)
RNA 1: CACCCGUGCAAAAAUGCAGGGGUCUAAAACUGAGCGGAUAACCUCUCUAUGG
RNA 2: GGGAAUGGAUCCACAUCUACGAAUUCGUACCAUAGAGGGGUUAUCCACUCACCGAGAUCGGAAGAGCACACGU
B16: target 1 insC 3' of 17 (mixed)
RNA 1: CACCCGUGCAAAAAUGCAGGGGUCUAAAACUGAGCGGAUAACCUCUCUAUGG
RNA 2: GGGAAUGGAUCCACAUCUACGAAUUCGUACCAUAGCAGAGGUUAUCCGCUCACCGAGAUCGGAAGAGCACACGU
B17: target 1 G5A,A14C (mixed)
RNA 1: CACCCGUGCAAAAAUGCAGGGGUCUAAAACUGAGCGGAUAACCUCUCUAUGG
RNA 2: GGGAAUGGAUCCACAUCUACGAAUUCGUACCAUAGAGCGGUUAUCCACUCACCGAGAUCGGAAGAGCACACGU
B18: target 1 insC 3' of 5,insC 3' of 5 (mixed)
RNA 1: CACCCGUGCAAAAAUGCAGGGGUCUAAAACUGAGCGGAUAACCUCUCUAUGG
RNA 2: GGGAAUGGAUCCACAUCUACGAAUUCGUACCAUAGAGAGGUUAUCCGCCCUCACCGAGAUCGGAAGAGCACACGU
B19: target 1 insC 3' of 20,insA 3' of 5 (mixed)
RNA 1: CACCCGUGCAAAAAUGCAGGGGUCUAAAACUGAGCGGAUAACCUCUCUAUGG
RNA 2: GGGAAUGGAUCCACAUCUACGAAUUCGUACCACUAGAGAGGUUAUCCGACUCACCGAGAUCGGAAGAGCACACGU
B20: target 1 insA 3' of 22,insG 3' of 14 (mixed)
RNA 1: CACCCGUGCAAAAAUGCAGGGGUCUAAAACUGAGCGGAUAACCUCUCUAUGG
RNA 2: GGGAAUGGAUCCACAUCUACGAAUUCGUACACAUAGAGAGGGUUAUCCGCUCACCGAGAUCGGAAGAGCACACGU
B21: target 1 insU 3' of 22,insC 3' of 8 (mixed)
RNA 1: CACCCGUGCAAAAAUGCAGGGGUCUAAAACUGAGCGGAUAACCUCUCUAUGG
RNA 2: GGGAAUGGAUCCACAUCUACGAAUUCGUACUCAUAGAGAGGUUAUCCCGCUCACCGAGAUCGGAAGAGCACACGU
B22: target 1 insG 3' of 11,insC 3' of 3 (mixed)
RNA 1: CACCCGUGCAAAAAUGCAGGGGUCUAAAACUGAGCGGAUAACCUCUCUAUGG
RNA 2: GGGAAUGGAUCCACAUCUACGAAUUCGUACCAUAGAGAGGUGUAUCCGCUCCACCGAGAUCGGAAGAGCACACGU
B23: target 1 A1U,C7A (mixed)
RNA 1: CACCCGUGCAAAAAUGCAGGGGUCUAAAACUGAGCGGAUAACCUCUCUAUGG
RNA 2: GGGAAUGGAUCCACAUCUACGAAUUCGUACCAUAGAGAGGUUAUACGCUCUCCGAGAUCGGAAGAGCACACGU
B24: target 1 G17A,U19C (mixed)
RNA 1: CACCCGUGCAAAAAUGCAGGGGUCUAAAACUGAGCGGAUAACCUCUCUAUGG
RNA 2: GGGAAUGGAUCCACAUCUACGAAUUCGUACCACAAAGAGGUUAUCCGCUCACCGAGAUCGGAAGAGCACACGU
B25: target 1 C6G,C7A (mixed)
RNA 1: CACCCGUGCAAAAAUGCAGGGGUCUAAAACUGAGCGGAUAACCUCUCUAUGG
RNA 2: GGGAAUGGAUCCACAUCUACGAAUUCGUACCAUAGAGAGGUUAUAGGCUCACCGAGAUCGGAAGAGCACACGU
B26: target 1 A20U (mixed)
RNA 1: CACCCGUGCAAAAAUGCAGGGGUCUAAAACUGAGCGGAUAACCUCUCUAUGG
RNA 2: GGGAAUGGAUCCACAUCUACGAAUUCGUACCUUAGAGAGGUUAUCCGCUCACCGAGAUCGGAAGAGCACACGU
B27: target 1 C7A (mixed)
RNA 1: CACCCGUGCAAAAAUGCAGGGGUCUAAAACUGAGCGGAUAACCUCUCUAUGG
RNA 2: GGGAAUGGAUCCACAUCUACGAAUUCGUACCAUAGAGAGGUUAUACGCUCACCGAGAUCGGAAGAGCACACGU
B28: target 1 insU 3' of 12,insG 3' of 9 (mixed)
RNA 1: CACCCGUGCAAAAAUGCAGGGGUCUAAAACUGAGCGGAUAACCUCUCUAUGG
RNA 2: GGGAAUGGAUCCACAUCUACGAAUUCGUACCAUAGAGAGGUUUAGUCCGCUCACCGAGAUCGGAAGAGCACACGU

target: T1, EsCas13d, nuclease-dead; assay: crRNA (strand 1, pre-loaded); Mg2+; 40 mM Tris-HCl pH 7.5, 150 mM NaCl, 6 mM MgCl2, 1 mM DTT, 0.1% Tween-20, 0.2 mg/ml BSA; 25 C; 10 min per concentration, then washed; conditions: tags: His6-TwinStrep-SUMO cleaved; N-terminal SNAP kept (SNAP-Surface 488); label: 3' end held by stalled T7 RNA polymerase

For B1, which Kd is on record?
Its Kd is 49 ± 11 nM.

How did the Kd turn out when B2 was run?
Its Kd is 34.6 ± 1.9 nM.

For B3, which Kd is on record?
The Kd was 9.8 ± 0.6 nM.

With B4 as the binder, how does the Kd read?
Its Kd is 82 ± 9 nM.

With B5 as the binder, how does the Kd read?
The Kd was 42 ± 7 nM.

B6 was tested. Which Kd did it give?
Its Kd is 38 ± 5 nM.

Which Kd does the source give for B7 here?
Its Kd is 37.8 ± 2.3 nM.

For B8, which Kd is on record?
The Kd was 45 ± 4 nM.

How did the Kd turn out when B9 was run?
The Kd was 6.9 ± 0.5 nM.

How did the Kd turn out when B10 was run?
The Kd was 43 ± 6 nM.

With B11 as the binder, how does the Kd read?
The Kd was 13.6 ± 1.8 nM.

How did the Kd turn out when B12 was run?
The Kd was 85 ± 28 nM.

With B13 as the binder, how does the Kd read?
The Kd was 11.3 ± 0.5 nM.

For B14, which Kd is on record?
Its Kd is 19.6 ± 2.1 nM.

How did the Kd turn out when B15 was run?
Its Kd is 42 ± 4 nM.

B16 was tested. Which Kd did it give?
Its Kd is 50 ± 11 nM.

With B17 as the binder, how does the Kd read?
Its Kd is 81 ± 34 nM.

How did the Kd turn out when B18 was run?
The Kd was 25.7 ± 3.2 nM.

B19 was tested. Which Kd did it give?
The Kd was 7.3 ± 1.1 nM.

Which Kd does the source give for B20 here?
The Kd was 21.7 ± 3.2 nM.

Which Kd does the source give for B21 here?
The Kd was about 100 nM.

For B22, which Kd is on record?
Its Kd is 51 ± 8 nM.

Which Kd does the source give for B23 here?
The Kd was 9.4 ± 1 nM.

With B24 as the binder, how does the Kd read?
Its Kd is 46 ± 6 nM.

Which Kd does the source give for B25 here?
Its Kd is 8.9 ± 0.4 nM.

How did the Kd turn out when B26 was run?
Its Kd is 50 ± 5 nM.

For B27, which Kd is on record?
The Kd was 7.8 ± 0.4 nM.

Which Kd does the source give for B28 here?
The Kd was 13.3 ± 0.8 nM.

Reference: paper PMC10786891, “Massively parallel profiling of RNA-targeting CRISPR-Cas13d”
